Consider one molecule from patent publication US20240279290A1 (Molecular Partners, published 2024).

This test addresses T1, cynomolgus serum albumin (cynomolgus).
T1 construct: also called CSA
In words: SPR (ProteOn XPR36), Protein #5 captured on hFAP-coated GLC chip, CSA as analyte, 1:1 Langmuir fit. As to the method:
ProteOn setup for Protein #5 binding to serum albumin of different species. First, human FAP (hFAP) was coated on a GLC chip (BioRad) to a level of 700 RU before 50 nM Protein #5 was immobilized as analyle for 120 s (dissociation of 0 s) at constant flow of 100 μl/min to a level of 120 RU. The binding of the serum albumin to Protein #5 was measured by injecting human serum albumin (HSA), cynomolgus serum albumin (CSA) and mouse serum albumin (MSA) in a serial dilution of 100, 33, 11 and 3.7 nM with an association of 120 s and a dissociation of 600 s at a constant flow of 100 μl/min. HSA, CSA and MSA binding was measured serially and the hFAP/Protein #5 complex was regenerated each time with 10 mM glycine pH2 for 18 s at a flow of 100 μl/min. Thus, Protein #5 had to be re-immobilized on hFAP after each regeneration step. […] The kinetic was calculated on the first 300 s of dissociation.

T1 sequence (A2V9Z4 25-608): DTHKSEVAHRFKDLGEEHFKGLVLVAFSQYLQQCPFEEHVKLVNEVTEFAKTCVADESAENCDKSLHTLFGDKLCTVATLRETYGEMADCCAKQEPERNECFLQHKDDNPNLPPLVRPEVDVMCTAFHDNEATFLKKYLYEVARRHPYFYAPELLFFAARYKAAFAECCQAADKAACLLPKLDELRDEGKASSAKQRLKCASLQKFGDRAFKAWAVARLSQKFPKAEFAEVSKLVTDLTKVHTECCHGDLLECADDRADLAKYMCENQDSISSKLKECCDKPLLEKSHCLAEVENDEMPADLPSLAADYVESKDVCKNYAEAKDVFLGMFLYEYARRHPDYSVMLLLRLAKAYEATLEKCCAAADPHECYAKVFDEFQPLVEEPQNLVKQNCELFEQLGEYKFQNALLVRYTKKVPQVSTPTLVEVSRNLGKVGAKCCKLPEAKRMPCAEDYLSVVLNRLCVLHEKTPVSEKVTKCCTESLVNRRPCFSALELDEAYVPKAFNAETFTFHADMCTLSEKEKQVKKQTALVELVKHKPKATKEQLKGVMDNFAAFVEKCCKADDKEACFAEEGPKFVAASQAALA

B1: DARPin Protein #5 (designed binder)
chain: GSDLGKKLLEAARAGQDDEVRELLKAGADVNAKDYFSHTPLHLAARNGHLKIVEVLLKAGADVNAKDFAGKTPLHLAAADGHLEIVEVLLKAGADVNAQDIFGKTPADIAADAGHEDIAEVLQKAAGSPTPTPTTPTPTPTTPTPTPTGSDLGKKLLEAARAGQDDEVRILLAAGADVNAKDVLGWTPLHLAAFEGHLEIVEVLLKAGADVNAKDKKGWTPLQLAARTGHLEIVEVLLKAGADVNAKDHIGATPLHLAAWQGHPEIVEVLLKAGADVNAQDKSGKTPADLAADAGHEDIAEVLQKAAGSPTPTPTTPTPTPTTPTPTPTGSDLGKKLLQAARAGQLDEVRELLKAGADVNAKDTWGFTPLHIAAESGHLEIVEVLLKAGADVNAKDVQGRTPLHIAAHSGHLEIVEVLLKAGADVNAKDFRGWTPLHLAAWSGHLEIVEILLKAGADVNAQDKSGKTPADLAARAGHQDIAEVLQKAAGSPTPTPTTPTPTPTTPTPTPTGSDLGKKLLQAARAGQLDEVRELLKAGADVNAKDTWGFTPLHIAAESGHLEIVEVLLKAGADVNAKDVQGRTPLHIAAHSGHLEIVEVLLKAGADVNAKDFRGWTPLHLAAWSGHLEIVEILLKAGADVNAQDKSGKTPADLAARAGHQDIAEVLQKAA
notes: No tag is stated for this protein; also called SMA136; Molecule No. 1
B1: the Kd was determined as 409 nM, the koff came to 0.217 s⁻¹ and the association rate constant (kon) worked out at 532000 M⁻¹ s⁻¹.
